# Test results reported in patent publication US20160103133.
# Target: recombinant RhoA (UniProt P61586)
# Sequence (P61586 whole entry): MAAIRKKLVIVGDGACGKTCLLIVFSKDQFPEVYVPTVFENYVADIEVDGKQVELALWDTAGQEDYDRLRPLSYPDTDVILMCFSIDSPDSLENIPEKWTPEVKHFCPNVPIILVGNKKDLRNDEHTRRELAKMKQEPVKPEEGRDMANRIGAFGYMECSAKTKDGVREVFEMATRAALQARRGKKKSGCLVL
substance,measurement,value
T7-tagged TRIO(G2699V),RhoGEF activity (mant-GTP exchange assay),the TRIO(G2699V) mutant was more capable of activating Rho than TRIO(WT)
